# Results as given in US12630600B2 (MEDIMMUNE LIMITED, priority 2022, dated 2026).
# Starred links: 1 amine or outer side, 2 acyl side, 3 side chain; linkers in the order of their positions; H or OH if unused. Non-standard residues stand in square brackets, D forms with d. Residues, ends and D or L forms follow the SMILES beside them. Groups on a side chain read outwards from the residue. No end group written: not given here. *: point of attachment. C20 diacid = O=C(O)CCCCCCCCCCCCCCCCCCC(=O)*; C18 diacid = O=C(O)CCCCCCCCCCCCCCCCC(=O)*; γGlu = O=C(O)[C@H](CCC(=O)[*:2])N[*:1]; αMeF = C[C@](N)(Cc1ccccc1)C(=O)O; AEEA = NCCOCCOCC(=O)O; Aib = CC(C)(N)C(=O)O
# B1: Peptide 524 (peptide)
# peptide: H[Aib]QGTFTSDVSE[αMeF]LDSERAK([AEEA-AEEA-γGlu-C18 diacid])DFVRWLEAGG-OH
# modifications: N-terminus assumed
# SMILES: CC(C)C[C@H](NC(=O)[C@H](Cc1c[nH]c2ccccc12)NC(=O)[C@H](CCCNC(=N)N)NC(=O)[C@@H](NC(=O)[C@H](Cc1ccccc1)NC(=O)[C@H](CC(=O)O)NC(=O)[C@H](CCCCNC(=O)COCCOCCNC(=O)COCCOCCNC(=O)CC[C@H](NC(=O)CCCCCCCCCCCCCCCCC(=O)O)C(=O)O)NC(=O)[C@H](C)NC(=O)[C@H](CCCNC(=N)N)NC(=O)[C@H](CCC(=O)O)NC(=O)[C@H](CO)NC(=O)[C@H](CC(=O)O)NC(=O)[C@H](CC(C)C)NC(=O)[C@](C)(Cc1ccccc1)NC(=O)[C@H](CCC(=O)O)NC(=O)[C@H](CO)NC(=O)[C@@H](NC(=O)[C@H](CC(=O)O)NC(=O)[C@H](CO)NC(=O)[C@@H](NC(=O)[C@H](Cc1ccccc1)NC(=O)[C@@H](NC(=O)CNC(=O)[C@H](CCC(N)=O)NC(=O)C(C)(C)NC(=O)[C@@H](N)Cc1c[nH]cn1)[C@@H](C)O)[C@@H](C)O)C(C)C)C(C)C)C(=O)N[C@@H](CCC(=O)O)C(=O)N[C@@H](C)C(=O)NCC(=O)NCC(=O)O
# B2: Peptide 523 (peptide)
# peptide: H[Aib]QGTFTSDVSK[αMeF]LDSERAK([AEEA-AEEA-γGlu-C20 diacid])DFVAWLEAGG-OH
# modifications: N-terminus assumed
# SMILES: CC(C)C[C@H](NC(=O)[C@H](Cc1c[nH]c2ccccc12)NC(=O)[C@H](C)NC(=O)[C@@H](NC(=O)[C@H](Cc1ccccc1)NC(=O)[C@H](CC(=O)O)NC(=O)[C@H](CCCCNC(=O)COCCOCCNC(=O)COCCOCCNC(=O)CC[C@H](NC(=O)CCCCCCCCCCCCCCCCCCC(=O)O)C(=O)O)NC(=O)[C@H](C)NC(=O)[C@H](CCCNC(=N)N)NC(=O)[C@H](CCC(=O)O)NC(=O)[C@H](CO)NC(=O)[C@H](CC(=O)O)NC(=O)[C@H](CC(C)C)NC(=O)[C@](C)(Cc1ccccc1)NC(=O)[C@H](CCCCN)NC(=O)[C@H](CO)NC(=O)[C@@H](NC(=O)[C@H](CC(=O)O)NC(=O)[C@H](CO)NC(=O)[C@@H](NC(=O)[C@H](Cc1ccccc1)NC(=O)[C@@H](NC(=O)CNC(=O)[C@H](CCC(N)=O)NC(=O)C(C)(C)NC(=O)[C@@H](N)Cc1c[nH]cn1)[C@@H](C)O)[C@@H](C)O)C(C)C)C(C)C)C(=O)N[C@@H](CCC(=O)O)C(=O)N[C@@H](C)C(=O)NCC(=O)NCC(=O)O
# B3: Peptide 526 (peptide)
# peptide: H[Aib]QGTFTSDVSK[αMeF]LDSERAK([AEEA-AEEA-γGlu-C18 diacid])DFVAWLEA[Aib]G-OH
# modifications: N-terminus assumed
# SMILES: CC(C)C[C@H](NC(=O)[C@H](Cc1c[nH]c2ccccc12)NC(=O)[C@H](C)NC(=O)[C@@H](NC(=O)[C@H](Cc1ccccc1)NC(=O)[C@H](CC(=O)O)NC(=O)[C@H](CCCCNC(=O)COCCOCCNC(=O)COCCOCCNC(=O)CC[C@H](NC(=O)CCCCCCCCCCCCCCCCC(=O)O)C(=O)O)NC(=O)[C@H](C)NC(=O)[C@H](CCCNC(=N)N)NC(=O)[C@H](CCC(=O)O)NC(=O)[C@H](CO)NC(=O)[C@H](CC(=O)O)NC(=O)[C@H](CC(C)C)NC(=O)[C@](C)(Cc1ccccc1)NC(=O)[C@H](CCCCN)NC(=O)[C@H](CO)NC(=O)[C@@H](NC(=O)[C@H](CC(=O)O)NC(=O)[C@H](CO)NC(=O)[C@@H](NC(=O)[C@H](Cc1ccccc1)NC(=O)[C@@H](NC(=O)CNC(=O)[C@H](CCC(N)=O)NC(=O)C(C)(C)NC(=O)[C@@H](N)Cc1c[nH]cn1)[C@@H](C)O)[C@@H](C)O)C(C)C)C(C)C)C(=O)N[C@@H](CCC(=O)O)C(=O)N[C@@H](C)C(=O)NC(C)(C)C(=O)NCC(=O)O
# B4: Peptide 522 (peptide)
# peptide: H[Aib]QGTFTSDVSK[αMeF]LDSERAK([AEEA-AEEA-γGlu-C18 diacid])DFVAWLEAGG-OH
# modifications: N-terminus assumed
# SMILES: CC(C)C[C@H](NC(=O)[C@H](Cc1c[nH]c2ccccc12)NC(=O)[C@H](C)NC(=O)[C@@H](NC(=O)[C@H](Cc1ccccc1)NC(=O)[C@H](CC(=O)O)NC(=O)[C@H](CCCCNC(=O)COCCOCCNC(=O)COCCOCCNC(=O)CC[C@H](NC(=O)CCCCCCCCCCCCCCCCC(=O)O)C(=O)O)NC(=O)[C@H](C)NC(=O)[C@H](CCCNC(=N)N)NC(=O)[C@H](CCC(=O)O)NC(=O)[C@H](CO)NC(=O)[C@H](CC(=O)O)NC(=O)[C@H](CC(C)C)NC(=O)[C@](C)(Cc1ccccc1)NC(=O)[C@H](CCCCN)NC(=O)[C@H](CO)NC(=O)[C@@H](NC(=O)[C@H](CC(=O)O)NC(=O)[C@H](CO)NC(=O)[C@@H](NC(=O)[C@H](Cc1ccccc1)NC(=O)[C@@H](NC(=O)CNC(=O)[C@H](CCC(N)=O)NC(=O)C(C)(C)NC(=O)[C@@H](N)Cc1c[nH]cn1)[C@@H](C)O)[C@@H](C)O)C(C)C)C(C)C)C(=O)N[C@@H](CCC(=O)O)C(=O)N[C@@H](C)C(=O)NCC(=O)NCC(=O)O
# B5: Peptide 525 (peptide)
# peptide: H[Aib]QGTFTSDVSK[αMeF]LDSERAK([AEEA-AEEA-γGlu-C18 diacid])DFVQWLEA[Aib]G-OH
# modifications: N-terminus assumed
# SMILES: CC(C)C[C@H](NC(=O)[C@H](Cc1c[nH]c2ccccc12)NC(=O)[C@H](CCC(N)=O)NC(=O)[C@@H](NC(=O)[C@H](Cc1ccccc1)NC(=O)[C@H](CC(=O)O)NC(=O)[C@H](CCCCNC(=O)COCCOCCNC(=O)COCCOCCNC(=O)CC[C@H](NC(=O)CCCCCCCCCCCCCCCCC(=O)O)C(=O)O)NC(=O)[C@H](C)NC(=O)[C@H](CCCNC(=N)N)NC(=O)[C@H](CCC(=O)O)NC(=O)[C@H](CO)NC(=O)[C@H](CC(=O)O)NC(=O)[C@H](CC(C)C)NC(=O)[C@](C)(Cc1ccccc1)NC(=O)[C@H](CCCCN)NC(=O)[C@H](CO)NC(=O)[C@@H](NC(=O)[C@H](CC(=O)O)NC(=O)[C@H](CO)NC(=O)[C@@H](NC(=O)[C@H](Cc1ccccc1)NC(=O)[C@@H](NC(=O)CNC(=O)[C@H](CCC(N)=O)NC(=O)C(C)(C)NC(=O)[C@@H](N)Cc1c[nH]cn1)[C@@H](C)O)[C@@H](C)O)C(C)C)C(C)C)C(=O)N[C@@H](CCC(=O)O)C(=O)N[C@@H](C)C(=O)NC(C)(C)C(=O)NCC(=O)O
# B6: Peptide 342 (peptide)
# peptide: H[Aib]QGTFTSDYSK[αMeF]LDSRRAK([γGlu-C18 diacid])DFVQWLLE[Aib]T-OH
# modifications: N-terminus assumed
# SMILES: CC(C)C[C@H](NC(=O)[C@H](Cc1c[nH]c2ccccc12)NC(=O)[C@H](CCC(N)=O)NC(=O)[C@@H](NC(=O)[C@H](Cc1ccccc1)NC(=O)[C@H](CC(=O)O)NC(=O)[C@H](CCCCNC(=O)CC[C@H](NC(=O)CCCCCCCCCCCCCCCCC(=O)O)C(=O)O)NC(=O)[C@H](C)NC(=O)[C@H](CCCNC(=N)N)NC(=O)[C@H](CCCNC(=N)N)NC(=O)[C@H](CO)NC(=O)[C@H](CC(=O)O)NC(=O)[C@H](CC(C)C)NC(=O)[C@](C)(Cc1ccccc1)NC(=O)[C@H](CCCCN)NC(=O)[C@H](CO)NC(=O)[C@H](Cc1ccc(O)cc1)NC(=O)[C@H](CC(=O)O)NC(=O)[C@H](CO)NC(=O)[C@@H](NC(=O)[C@H](Cc1ccccc1)NC(=O)[C@@H](NC(=O)CNC(=O)[C@H](CCC(N)=O)NC(=O)C(C)(C)NC(=O)[C@@H](N)Cc1c[nH]cn1)[C@@H](C)O)[C@@H](C)O)C(C)C)C(=O)N[C@@H](CC(C)C)C(=O)N[C@@H](CCC(=O)O)C(=O)NC(C)(C)C(=O)N[C@H](C(=O)O)[C@@H](C)O
# Target: human GLP-1 receptor (human, UniProt P43220)
# Test: cell-based or functional assay
# Conditions: not given
row,Molecule,hGLP-1R EC50 (pM)
1,B1,366
2,B2,615
3,B3,194
4,B4,508
5,B5,177
6,B6,220

# Target: human glucagon receptor (human, UniProt P47871)
# Test: cell-based or functional assay
# Conditions: not given
row,Molecule,hGluc-R EC50 (pM)
1,B1,> 24400
2,B2,> 24700
3,B3,690
4,B4,6360
5,B5,2450
6,B6,4830

# Target: T1, human GLP-1 receptor (hGLP-1R) (Homo sapiens, UniProt P43220)
# T1 construct: expressed in transfected cells; host or cells: CHO
# Test: cAMP production (HTRF) in CHO cells expressing human GLP-1 receptor
# Type: cell-based
# Conditions: Table 8; % GLP-1R activity relative to GLP-1 / % GlucR activity relative to glucagon
# Procedure: Cells were re-suspended in assay buffer at a batch-dependent optimized concentration (typically hGLP-1R cells at 1×10^5 cells/mL, hGCGR cells at 2×10^5 cells/mL).
# Cells were added to the assay plate using a multidrop dispenser and incubated at room temperature for 30 minutes before measuring the cAMP level using a cAMP dynamic 2 homogeneous time resolved Fluorescence (HTRF) kit (Cisbio Bioassays #62AM4PEJ) following the two-step protocol as per manufacturer's recommendations. In brief, anti-cAMP cryptate (donor fluorophore) and cAMP-d2 (acceptor fluorophore) were made up separately by diluting each 1 in 20 in conjugate and lysis buffer provided in the kit. Anti-cAMP cryptate was added to all wells of the assay plate, followed by cAMP-d2 added to all wells except non-specific binding (NSB) wells (to which conjugate and lysis buffer was added).
# Data was transformed to % Delta F as described in the manufacturer's guidelines and analyzed by 4-parameter logistic fit to determine EC50 values.
# T1 sequence (P43220 24-463): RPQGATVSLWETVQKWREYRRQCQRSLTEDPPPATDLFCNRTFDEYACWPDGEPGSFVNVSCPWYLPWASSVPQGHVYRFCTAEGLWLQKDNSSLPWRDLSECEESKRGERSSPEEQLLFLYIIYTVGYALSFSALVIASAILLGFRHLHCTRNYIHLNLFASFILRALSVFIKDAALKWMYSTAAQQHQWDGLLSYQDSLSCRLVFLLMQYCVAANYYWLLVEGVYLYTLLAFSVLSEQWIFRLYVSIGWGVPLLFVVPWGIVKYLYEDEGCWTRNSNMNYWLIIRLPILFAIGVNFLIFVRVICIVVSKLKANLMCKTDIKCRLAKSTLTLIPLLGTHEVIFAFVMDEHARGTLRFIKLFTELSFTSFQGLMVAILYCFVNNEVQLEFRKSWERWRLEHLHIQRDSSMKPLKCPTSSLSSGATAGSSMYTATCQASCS
row,Molecule,% Relative Potency Ratio
1,CC[C@H](C)[C@H](NC(=O)[C@H](Cc1c[nH]c2ccccc12)NC(=O)[C@H](CCCCNC(=O)COCCOCCNC(=O)COCCOCCNC(=O)CC[C@H](NC(=O)CCCCCCCCCCCCCCCCCCC(=O)O)C(=O)O)NC(=O)[C@@H](NC(=O)[C@H](Cc1ccccc1)NC(=O)[C@H](CC(=O)O)NC(=O)[C@H](CCC(N)=O)NC(=O)[C@H](C)NC(=O)[C@H](C)NC(=O)[C@H](CCCNC(=N)N)NC(=O)[C@H](CO)NC(=O)[C@H](CC(=O)O)NC(=O)[C@H](CC(C)C)NC(=O)[C@](C)(Cc1ccccc1)NC(=O)[C@H](CCCCN)NC(=O)[C@H](CO)NC(=O)[C@@H](NC(=O)[C@H](CC(=O)O)NC(=O)[C@H](CO)NC(=O)[C@@H](NC(=O)[C@](C)(Cc1ccccc1)NC(=O)[C@H](CO)NC(=O)CNC(=O)[C@H](Cc1c[nH]cn1)NC(=O)C(C)(C)NC(=O)[C@@H](N)Cc1c[nH]cn1)[C@@H](C)O)C(C)C)C(C)C)C(=O)N[C@@H](C)C(=O)N[C@@H](CC(N)=O)C(=O)N[C@H](C(N)=O)[C@@H](C)O [Peptide 367] (H-H[Aib]HGS[αMeF]TSDVSK[αMeF]LDSRAAQDFVK([AEEA-AEEA-γGlu-C20 diacid])WIANT-NH2; N-terminus assumed),1.0
